# According to patent US20080248026:
# System: T1, purified murine β-catenin protein
# T1 sequence: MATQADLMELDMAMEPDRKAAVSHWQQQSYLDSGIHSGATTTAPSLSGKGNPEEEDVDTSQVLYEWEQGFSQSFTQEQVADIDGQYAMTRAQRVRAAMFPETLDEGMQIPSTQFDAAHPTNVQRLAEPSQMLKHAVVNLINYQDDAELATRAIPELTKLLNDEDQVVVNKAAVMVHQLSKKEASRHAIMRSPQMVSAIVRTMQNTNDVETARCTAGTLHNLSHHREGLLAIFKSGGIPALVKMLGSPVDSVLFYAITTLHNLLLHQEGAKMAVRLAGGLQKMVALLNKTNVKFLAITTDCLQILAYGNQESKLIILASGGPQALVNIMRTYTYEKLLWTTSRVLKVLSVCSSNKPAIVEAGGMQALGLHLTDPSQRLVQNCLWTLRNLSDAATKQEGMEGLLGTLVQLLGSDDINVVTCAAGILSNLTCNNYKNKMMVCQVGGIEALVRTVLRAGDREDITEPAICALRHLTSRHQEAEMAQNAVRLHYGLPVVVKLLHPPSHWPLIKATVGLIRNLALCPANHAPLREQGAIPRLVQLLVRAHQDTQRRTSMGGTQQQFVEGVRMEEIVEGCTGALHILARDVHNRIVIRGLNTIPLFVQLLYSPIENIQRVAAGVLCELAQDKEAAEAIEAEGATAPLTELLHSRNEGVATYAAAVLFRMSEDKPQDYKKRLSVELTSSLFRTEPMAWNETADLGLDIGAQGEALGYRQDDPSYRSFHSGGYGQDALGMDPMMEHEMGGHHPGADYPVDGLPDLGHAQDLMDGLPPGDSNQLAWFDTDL
substance,measurement,value
Akt (Cell Signaling),in vitro phosphorylation; collision induced dissociation spectrum of the peptide spanning Ser^552 (loss of the 98 Da H3PO4 group),indicating that this peptide (shown in FIG. 5C) is phosphorylated by Akt
